Holding throughout (format): cell-based
Assay [1] has as its system normal human dermal fibroblast (NHDF). The assay is described as follows: TGFβ1-induced fibrosis of human dermal fibroblasts, αSMA western blot. On the procedure:
(1) Human dermal fibroblasts (normal human dermal fibroblast, NHDF) were seeded (1.0×10^5 cells/well) in a 6-well plate and incubated in FBM-2 (fibroblast growth medium-2, CC-3131, Lonza) medium for 24 hours in an incubator at 37° C. 5% CO2.
(2) After replacing with serum-free medium, the medium was incubated for 24 hours.
(3) In this regard, under conditions in which fibrosis was induced by treatment with TGFβ1 (10 ng/ml), each well of the plate was treated with the composition of the present disclosure based on Preparation Example 2 but with rhHAPLN1 protein content of 0, 3, 10, 30, and 100 ng/ml and 100 μg/mL and 200 μg/mL of pirfenidone (Selleckchem), a commercially available anti-fibrotic agent, respectively, and incubated for 24 hours.
(§1) (4) Afterwards, each sample was washed twice with phosphate buffered saline (PBS, pH 7.2), and then the expression level of αSMA, a marker for myofibroblasts, was confirmed by western blot.
(Immunoblotting shows a protein as a band on a membrane.)

The test system of assay [2] is human colon fibroblast cell line (CCD-18Co). The assay is described as follows: TGFβ1-induced fibrosis of human colon fibroblast cell line, αSMA western blot. On the procedure:
(1) A human colon fibroblast cell line (CCD-18Co (human colon fibroblast cell line; ATCC, CRL-1459)) was seeded (1.5×10^5 cells/well) in a 6-well plate according to the experimental scheme in FIG. 3A and incubated in Eagle's minimum essential medium (EMEM) medium including 10% fetal bovine serum (FBS) for 24 hours in an incubator at 37° C. and 5% CO2.
(2) After replacing with serum-free EMEM medium, the medium was incubated for 24 hours.
(3) The plates were then treated with TGF-β (10 ng/ml) to induce fibrosis and incubated for 24 hours.
(§2) (4) Afterwards, each well of the plate was then treated with the composition of the present disclosure at rhHAPLN1 protein content of 0, 3, 10, 30, and 100 ng/ml and pirfenidone 100 μg/mL and 200 μg/mL, respectively, and incubated for 24 hours.
(§3) (5) Each sample was then treated with cell lysis buffer and harvested.
(6) Western blot was performed on the samples. Here, anti-αSMA Ab (Abcam, ab7817), anti-GAPDH Ab (Santa Cruz, sc-32233) were used as primary antibodies and HRP-conjugated anti-mouse IgG Ab (CST, #7076) as secondary antibodies to confirm the protein expression levels of αSMA and GAPDH.

Assay [3] has as its system human cardiac microvascular endothelial cell (HCMEC). The assay is described as follows: TGFβ1-induced fibrosis of human cardiac microvascular endothelial cells, αSMA western blot. The procedure:
(1) Primary human cardiac microvascular endothelial cell (HCMEC; ScienCell, #6000) were seeded (5.7×10^4 cells/well) in a 6-well plate according to the experimental scheme of FIG. 4A and incubated in Endothelial cell medium (ScienCell) for 24 hours in an incubator at 37° C. 5% CO2.
(2) The plates were then treated with TGFβ1 (5 ng/ml) to induce fibrosis and incubated for 3 days.
(3) Afterwards, each well of the plate was then treated with the composition of the present disclosure at rhHAPLN1 protein content of 0, 3, 10, 30, and 100 ng/ml and pirfenidone 100 μg/mL and 200 μg/mL, respectively, and incubated for 3 days.
(4) Each sample was then treated with cell lysis buffer and harvested.
(5) Western blotting was performed on the samples. Here, anti-αSMA Ab (Abcam, ab7817), anti-GAPDH Ab (Santa Cruz, sc-32233) were used as primary antibodies and HRP-conjugated anti-mouse IgG Ab (CST, #7076) as secondary antibodies to confirm the protein expression levels of αSMA and GAPDH.

The test system of assay [4] is normal human lung fibroblast (NHLF). The experiment in a line: TGFβ1-induced fibrosis of normal human lung fibroblasts, αSMA western blot. The procedure: (1) normal human lung fibroblasts (NHLF) cultured for 9 passages were seeded (1.0×10^5 cells/well) in a 6-well plate and incubated in FBM-2 (Fibroblast Growth Medium-2, CC-3131, Lonza) medium for 24 hours in an incubator at 37° C. 5% CO2. (2) After replacing with serum-free medium, the medium was incubated for 24 hours.
(3) In this regard, under conditions in which fibrosis was induced by treatment with TGFβ1 (10 ng/ml), each well of the plate was treated with the composition of the present disclosure with rhHAPLN1 protein content of 0, 3.1, 12.5, 25 and 100 ng/ml and 100 μg/mL and 200 μg/mL of pirfenidone (Selleckchem), respectively, and incubated for 24 hours.
as §1

Assay [5] has as its system human hepatic stellate cell (HHSC). The experiment in a line: TGFβ1-induced fibrosis of human hepatic stellate cells, αSMA western blot. The procedure: (1) Human hepatic stellate cells (primary human hepatic stellate cell (HHSC; iXCells Biotechnologies, 10HU-210) were seeded (1.5×10^5 cells/well) in a 6-well plate according to the experimental scheme in FIG. 2A and incubated in stellate cell growth medium (iXCells Biotechnologies, MD-0014) in an incubator at 37° C. 5% CO2 for 24 hours.
(2) After replacing with serum-free DMEM medium, the medium was incubated for 24 hours.
(3) The plates were then treated with TGF31 (2 ng/ml) to induce fibrosis and incubated for 24 hours.
as §2, §3
(6) Western blotting was performed on the samples. Here, anti-αSMA Ab (Abcam, ab7817), anti-GAPDH Ab (Santa Cruz, sc-32233) were used as primary antibodies and HRP-conjugated anti-mouse IgG Ab (CST, #7076) as secondary antibodies to confirm the protein expression levels of αSMA and GAPDH.

Where [6] appears, read: all rhHAPLN1 contents, pirfenidone 100 and 200 μg/mL.

The term inhibition denotes the change of the read-out against control, counted positive when it falls. High values mean strong suppression, low ones little suppression.

For `Cc1ccc(=O)n(-c2ccccc2)c1` [pirfenidone, reference compound], the “expression level of αSMA at 200 μg/mL versus 100 μg/mL” value in assay [1] (pirfenidone 200 μg/mL, TGFβ1 10 ng/ml) was “higher expression level of αSMA than 100 μg/mL”; in assay [2] (pirfenidone 200 μg/mL) it was “higher expression level of αSMA than 100 μg/mL”. Also, in assay [1] (αSMA, TGFβ1 10 ng/ml), the “optimal anti-fibrotic concentration (assumed)” value came out at 100 µg/mL. Further, the inhibition at 100 µg/mL in assay [2] (Homo sapiens, CCD-18Co, pirfenidone 100 μg/mL) turned out to be 10.6%. For the same molecule, the “relative level of αSMA (value used in the inhibition formula; TGFβ1 alone 3.82, untreated 1)” value in assay [2] (pirfenidone 100 μg/mL) stood at 3.52. In addition, in assay [3] (pirfenidone 100 and 200 μg/mL), the “expression level of αSMA compared to composition that does not include rhHAPLN1 protein” value is “higher than when treated with a composition that does not include rhHAPLN1 protein”. The “anti-fibrotic effect (expression level of αSMA compared to composition without rhHAPLN1)” value in assay [4] (pirfenidone 100 and 200 μg/mL) is on record as “no anti-fibrotic effect”.

B1: rhHAPLN1: recombinant human HAPLN1 protein of SEQ ID NO: 1 produced in CHO-K1 cells, stabilized in acetic acid buffer, sucrose, PS80, pH 5.0 (protein, listed as Homo sapiens)
chain: MKSLLLLVLISICWADHLSDNYTLDHDRAIHIQAENGPHLLVEAEQAKVFSHRGGNVTLPCKFYRDPTAFGSGIHKIRIKWTKLTSDYLKEVDVFVSMGYHKKTYGGYQGRVFLKGGSDSDASLVITDLTLEDYGRYKCEVIEGLEDDTVVVALDLQGVVFPYFPRLGRYNLNFHEAQQACLDQDAVIASFDQLYDAWRGGLDWCNAGWLSDGSVQYPITKPREPCGGQNTVPGVRNYGFWDKDKSRYDVFCFTSNFNGRFYYLIHPTKLTYDEAVQACLNDGAQIAKVGQIFAAWKILGYDRCDAGWLADGSVRYPISRPRRRCSPTEAAVRFVGFPDKKHKLYGVYCFRAYN
For the molecule B1, the “expression level of αSMA compared to composition that does not include rhHAPLN1 protein (FIG. 1B)” value in assay [1] (TGFβ1 10 ng/ml, all rhHAPLN1 contents 3, 10, 30, 100 ng/ml, 24 hours) was “significantly lower”. The “anti-fibrotic action from αSMA western blot band, compared to pirfenidone (FIG. 1A)” value in assay [1] (TGFβ1 10 ng/ml, pirfenidone 100 and 200 μg/mL) is given as “much better anti-fibrotic action than pirfenidone”. Besides, the “rhHAPLN1 protein content showing the most excellent anti-fibrotic efficacy” value in assay [1] (TGFβ1 10 ng/ml, αSMA) worked out at 100 ng/mL; in assay [5] (αSMA), 3 ng/mL; in assay [2] (αSMA), 10 ng/mL; in assay [3] (αSMA), 3 ng/mL; in assay [4] (αSMA) it was 12.5 ng/mL. Besides, the “anti-fibrotic efficacy higher than pirfenidone at 100 μg/mL” value in assay [1] (rhHAPLN1 100 ng/ml, αSMA) is given as 25%. Besides, the “expression level of αSMA compared to composition that does not include rhHAPLN1 protein (FIG. 2C)” value in assay [5] (TGFβ1 (2 ng/ml) 24 h, then rhHAPLN1 3, 10, 30, 100 ng/ml 24 h) is on record as “significantly lower”. The “anti-fibrotic action from αSMA western blot band, compared to pirfenidone (FIG. 2B)” value in assay [5] (setting [6]) was “much better anti-fibrotic action compared to pirfenidone”. Moreover, the “anti-fibrotic efficacy compared to pirfenidone at 100 μg/mL and 200 μg/mL” value in assay [5] (rhHAPLN1 3 ng/ml, αSMA) is “much higher anti-fibrotic efficacy”. Besides, the “expression level of αSMA compared to composition that does not include rhHAPLN1 protein (FIG. 3C)” value in assay [2] (TGFβ1 10 ng/ml 24 h, then rhHAPLN1 3, 10, 30, 100 ng/ml 24 h) is given as “significantly lower”. Also, the “anti-fibrotic action from αSMA western blot band, compared to pirfenidone (FIG. 3B)” value in assay [2] (setting [6]) was “much better anti-fibrotic action compared to pirfenidone”. Also, the “anti-fibrotic efficacy of rhHAPLN1 relative to pirfenidone at 100 μg/mL” value in assay [2] (rhHAPLN1 10 ng/ml) is listed as “approximately 7 folds”. In assay [2] (rhHAPLN1 10 ng/ml), the “anti-fibrotic efficacy relative to pirfenidone at 200 μg/mL” value is “much higher than twice”. Besides, the “inhibition of TGFβ1-induced αSMA” value in assay [2] (rhHAPLN1 10 ng/ml) was determined as 71.6%. Further, the “relative level of αSMA (value used in the inhibition formula; TGFβ1 alone 3.82, untreated 1)” value in assay [2] (rhHAPLN1 10 ng/ml) came to 1.8. Also, the “expression level of αSMA compared to composition that does not include rhHAPLN1 protein (FIG. 4C)” value in assay [3] (TGFβ1 5 ng/ml 3 days, then rhHAPLN1 3, 10, 30, 100 ng/ml 3 days) is given as “significantly lower”. Also, the “anti-fibrotic action from αSMA western blot band, compared to pirfenidone (FIG. 4B)” value in assay [3] (setting [6]) is reported as “much better anti-fibrotic action compared to pirfenidone”. In assay [4] (TGFβ1 10 ng/ml, rhHAPLN1 3.1, 12.5, 25, 100 ng/ml, 24 hours), the “expression level of αSMA compared to composition that does not include rhHAPLN1 protein (FIG. 5B)” value is “significantly lower”. Besides, the “anti-fibrotic action from αSMA western blot band, compared to pirfenidone (FIG. 5A)” value in assay [4] (setting [6]) was “much better anti-fibrotic action compared to pirfenidone”. Besides, the “anti-fibrotic efficacy relative to pirfenidone at 100 μg/mL and at 200 μg/mL” value in assay [4] (rhHAPLN1 12.5 ng/ml) is “about twice as higher”.

Values taken from patent US20240350583A1, “COMPOSITION FOR PREVENTING OR TREATING FIBROTIC DISEASES, COMPRISING HAPLN1” (Chung Ang University Industry Academic Cooperation …, priority 2021, published 2024).
